Test [1] addresses GLP-1 receptor (CHO/GLP-1R cell line). Nature of the test: cell-based or functional assay.
The next test deals with T1, GLP-1 receptors (Homo sapiens, UniProt P43220).
T1 construct: expressed in transfected cells; host or cells: CHO (CHO/GLP-1R)
The test is described as follows: In-vitro activity: cAMP increase in CHO/GLP-1R cells. Format: cell-based. The note with it: CHO/GLP-1R cell line; cAMP measured at varying concentrations, EC50 values compared; control Byetta = 100. Here is the method: To measure the efficacy of long acting preparation of exendin-4 by pegylation and pegylation site, a method for measuring the in-vitro activity was used. The measurement of in-vitro activity of GLP-1 is a method for measuring whether cAMP's in the cell was increased after treatment of GLP-1 to CHO cell lines to which GLP-1 receptors was cloned. Specifically, CHO/GLP-1R, a cell line in which […], was treated with GLP-1, exendin-4 and test materials described in Table 1 at varying concentrations.

T1 sequence (P43220 24-463): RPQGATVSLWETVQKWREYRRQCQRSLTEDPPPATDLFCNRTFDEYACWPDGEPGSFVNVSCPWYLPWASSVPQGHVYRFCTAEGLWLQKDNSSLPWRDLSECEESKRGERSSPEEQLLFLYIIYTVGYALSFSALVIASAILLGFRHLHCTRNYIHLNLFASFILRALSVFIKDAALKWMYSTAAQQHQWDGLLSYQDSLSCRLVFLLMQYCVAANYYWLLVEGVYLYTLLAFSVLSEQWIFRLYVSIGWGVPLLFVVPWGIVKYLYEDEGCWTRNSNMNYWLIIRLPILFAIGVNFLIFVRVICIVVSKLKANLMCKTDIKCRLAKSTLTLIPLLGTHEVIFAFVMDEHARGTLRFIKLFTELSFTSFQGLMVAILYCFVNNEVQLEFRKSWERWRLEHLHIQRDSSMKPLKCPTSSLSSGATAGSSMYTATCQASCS
Byetta (Eli Lilly), sequence (P26349 48-86): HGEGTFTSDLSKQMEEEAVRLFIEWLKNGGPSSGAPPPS

On to “Byetta (Eli Lilly) (from UniProt P26349 48-86) (peptide)”, for which, in test [1], the In-vitro activity (%) (cAMP in CHO/GLP-1R cells, EC50 values compared) was determined as 100%.

Regarding imidazo-acetyl-exendin-4 [CA-exendin-4], on GLP-1 receptors, the “In-vitro activity (%)” value was found to be 77%.

The values above are taken from patent US8895281B2, “Method for preparing a site-specific physiologically active polypeptide conjugate” (Hanmi Science Co., Ltd, priority 2009, dated 2014).
